Experimental data published in paper doi:10.1101/2022.08.03.502606.
Read-outs that look alike come from different tables or passages of the source.

Tests used:
[1] = target: CaMKII^K42RD135N-AviTag (kinase-dead CaMKII, K42R and D135N double mutant, C-terminal AviTag) (human) (UniProt Q9UQM7); assay: mass photometry
[2] = target: CaMKII^K42RD135N-AviTag (kinase-dead CaMKII, K42R and D135N double mutant, C-terminal AviTag) (human) (UniProt Q9UQM7); assay: mass photometry; remark: listed apart in the source
[3] = target: CaMKII^K42RD135N-AviTag (kinase-dead CaMKII, K42R and D135N double mutant, C-terminal AviTag) (human) (UniProt Q9UQM7)
[4] = target: CaMKII^F394BzF (human) (UniProt Q9UQM7)

Row | Substance | percent in the tetramer peak [1] [%] | stoichiometry N [1] | stoichiometry N [2] | stoichiometry N [3] | stoichiometry N [4]
1 | CaMKII^K42RD135N-AviTag (kinase-dead CaMKII, K42R and D135N double mutant, C-terminal AviTag) (from UniProt Q9UQM7 6-478) (enzyme) | 12 | 4 | 10 | 12 | –
2 | CaMKII^F394BzF (from UniProt Q9UQM7 6-478) (enzyme) | – | – | – | – | 12
